In patent US20190241648A1 (STATEN BIOTECHNOLOGY B V, published 2019):
Ends that are not written are not given here.

Columns and labels:
Test in all cases: cyclic peptide substitution array
ApoC3 peptide E63A = target: T1, ApoC3 peptide E63A (human, not fully specified; cyclic (thioether))
T1 peptide: DKFSAFWDLDPEV
How it was run: (§1)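 Peptide microarrays incubated with antibody samples, then stained with goat anti-human IgG (Fc) DyLight680 and anti-HA DyLight800 control antibodies, scanned at intensity 7/7 (red/green). Secondary-only pre-stain checked background binding; framing HA peptides served as quality control; substitution effects read as changes in spot intensity.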

ApoC3 peptide D68V = target: T2, ApoC3 peptide D68V (human, not fully specified; cyclic (thioether))
T2 peptide: DKFSEFWDLVPEV
How it was run: as §1

ApoC3 peptide W65Y = target: T3, ApoC3 peptide W65Y (human, cyclic (thioether))
T3 peptide: DKFSEFYDLDPEV
How it was run: as §1

ApoC3 peptide D66W = target: T4, ApoC3 peptide D66W (human, cyclic (thioether))
T4 peptide: DKFSEFWWLDPEV
How it was run: as §1

ApoC3 peptide D66H = target: T5, ApoC3 peptide D66H (human, not fully specified; cyclic (thioether))
T5 peptide: DKFSEFWHLDPEV
How it was run: as §1

ApoC3 peptide S62D = target: T6, ApoC3 peptide S62D (human, not fully specified; cyclic (thioether))
T6 peptide: DKFDEFWDLDPEV
How it was run: as §1

ApoC3 peptide F61C = target: T7, ApoC3 peptide F61C (human, cyclic (thioether))
T7 peptide: DKCSEFWDLDPEV
How it was run: as §1

ApoC3 peptide E63P = target: T8, ApoC3 peptide E63P (human, cyclic (thioether))
T8 peptide: DKFSPFWDLDPEV
How it was run: as §1

ApoC3 peptide D59F = target: T9, ApoC3 peptide D59F (human, thioether (positions not given here); not fully specified (C-terminus, bridges))
T9 peptide: FKFSEFWDLDPEV
How it was run: as §1

ApoC3 peptide W65H = target: T10, ApoC3 peptide W65H (human, cyclic (thioether))
T10 peptide: DKFSEFHDLDPEV
How it was run: as §1

ApoC3 peptide L67V = target: T11, ApoC3 peptide L67V (human, thioether (positions not given here); not fully specified (bridges); also: thioether between a C-terminal Cys side chain and a modified N-terminus, the Cys is not in the chain)
T11 peptide: DKFSEFWDVDPEV
How it was run: as §1

ApoC3 peptide V71A = target: T12, ApoC3 peptide V71A (human, thioether (positions not given here); also: cyclic (thioether), ring places not given here)
T12 peptide: DKFSEFWDLDPEA
How it was run: as §1

ApoC3 peptide P69N = target: T13, ApoC3 peptide P69N (human, not fully specified; cyclic (thioether))
T13 peptide: DKFSEFWDLDNEV
How it was run: as §1

ApoC3 peptide D66N = target: T14, ApoC3 peptide D66N (human, not fully specified; cyclic (thioether))
T14 peptide: DKFSEFWNLDPEV
How it was run: as §1

ApoC3 peptide D59A = target: T15, ApoC3 peptide D59A (human, thioether (positions not given here); not fully specified (C-terminus, bridges))
T15 peptide: AKFSEFWDLDPEV
How it was run: as §1

ApoC3 peptide D68F = target: T16, ApoC3 peptide D68F (human, cyclic (thioether))
T16 peptide: DKFSEFWDLFPEV
How it was run: as §1

ApoC3 peptide L67W = target: T17, ApoC3 peptide L67W (human, thioether (positions not given here); not fully specified (bridges); also: thioether between a C-terminal Cys side chain and a modified N-terminus, the Cys is not in the chain)
T17 peptide: DKFSEFWDWDPEV
How it was run: as §1

ApoC3 peptide K60V = target: T18, ApoC3 peptide K60V (human, cyclic (thioether))
T18 peptide: DVFSEFWDLDPEV
How it was run: as §1

ApoC3 peptide F64V = target: T19, ApoC3 peptide F64V (human, thioether (positions not given here); not fully specified (bridges); also: cyclic (thioether), positions not given here)
T19 peptide: DKFSEVWDLDPEV
How it was run: as §1

ApoC3 peptide F64N = target: T20, ApoC3 peptide F64N (human, thioether (positions not given here); not fully specified (bridges); also: cyclic (thioether), positions not given here)
T20 peptide: DKFSENWDLDPEV
How it was run: as §1

ApoC3 peptide K60N = target: T21, ApoC3 peptide K60N (human, cyclic (thioether))
T21 peptide: DNFSEFWDLDPEV
How it was run: as §1

ApoC3 peptide K60A = target: T22, ApoC3 peptide K60A (human, thioether (positions not given here); not fully specified (bridges); also: cyclic (thioether), positions not given here)
T22 peptide: DAFSEFWDLDPEV
How it was run: as §1

ApoC3 peptide E63F = target: T23, ApoC3 peptide E63F (human, not fully specified; cyclic (thioether))
T23 peptide: DKFSFFWDLDPEV
How it was run: as §1

ApoC3 peptide D66Q = target: T24, ApoC3 peptide D66Q (human, not fully specified; cyclic (thioether))
T24 peptide: DKFSEFWQLDPEV
How it was run: as §1

ApoC3 peptide V71W = target: T25, ApoC3 peptide V71W (human, not fully specified; cyclic (thioether))
T25 peptide: DKFSEFWDLDPEW
How it was run: as §1

ApoC3 peptide K60E = target: T26, ApoC3 peptide K60E (human, cyclic (thioether))
T26 peptide: DEFSEFWDLDPEV
How it was run: as §1

ApoC3 peptide D59S = target: T27, ApoC3 peptide D59S (human, thioether (positions not given here); not fully specified (C-terminus, bridges); also: cyclised via thioether between a C-terminal Cys and a modified N-terminus, the Cys and the N-terminal …)
T27 peptide: SKFSEFWDLDPEV
How it was run: as §1

ApoC3 peptide D59Q = target: T28, ApoC3 peptide D59Q (human, thioether (positions not given here); not fully specified (C-terminus, bridges); also: cyclised via thioether between a C-terminal Cys and a modified N-terminus, the Cys and the N-terminal …)
T28 peptide: QKFSEFWDLDPEV
How it was run: as §1

ApoC3 peptide V71M = target: T29, ApoC3 peptide V71M (human, thioether (positions not given here); also: cyclic (thioether), ring places not given here)
T29 peptide: DKFSEFWDLDPEM
How it was run: as §1

ApoC3 peptide K60M = target: T30, ApoC3 peptide K60M (human, cyclic (thioether))
T30 peptide: DMFSEFWDLDPEV
How it was run: as §1

B1: Llama antibody 5E5 (antibody, V domains shown)
VH: QLQLVESGGGLVQPGGSLRLSCAASGFTFGTYSMRWVRQVPRKALEWVSSISTDGGGTAYRDSVKGRFTISRDNAKNTLYLQMNNLKPEDTAIYYCVIAGYSDWGQGTQVTVSS
VL: ATMLTQSPGSLSVVPGESASISCKTSQGLVHSDGKTYFYWFLQKPGQSPQQLIYQVSNRASGVPDRFTGSGSGTDFTLKISGVKAEDAGVYYCAQGTYYPHTFGSGTRLEIK
notes: detected with goat anti-human IgG (Fc); also called mAb 5E5
Q: For B1, which “% of binding to wild-type peptide” value (ApoC3 peptide E63A) is on record?
A: 90.1%

Q: What about the “% of binding to wild-type peptide” value (ApoC3 peptide D68V) of the same binder?
A: 0%

Q: And the “% of binding to wild-type peptide” value (ApoC3 peptide W65Y)?
A: 0%

Q: And the “% of binding to wild-type peptide” value (ApoC3 peptide D66W)?
A: 0%

Q: And the “% of binding to wild-type peptide” value (ApoC3 peptide D66H)?
A: 0%

Q: And the “% of binding to wild-type peptide” value (ApoC3 peptide S62D)?
A: 0%

Q: What about the “% of binding to wild-type peptide” value (ApoC3 peptide F61C) of the same binder?
A: 0.51%

Q: What about the “% of binding to wild-type peptide” value (ApoC3 peptide E63P) of the same binder?
A: 81.2%

Q: What about the “% of binding to wild-type peptide” value (ApoC3 peptide D59F) of the same binder?
A: 31.6%

Q: And the “% of binding to wild-type peptide” value (ApoC3 peptide W65H)?
A: 0%

Q: What about the “% of binding to wild-type peptide” value (ApoC3 peptide L67V) of the same binder?
A: 84.8%

Q: What about the “% of binding to wild-type peptide” value (ApoC3 peptide V71A) of the same binder?
A: 66.3%

Q: And the “% of binding to wild-type peptide” value (ApoC3 peptide P69N)?
A: 19.4%

Q: And the “% of binding to wild-type peptide” value (ApoC3 peptide D66N)?
A: 0%

Q: What about the “% of binding to wild-type peptide” value (ApoC3 peptide D59A) of the same binder?
A: 44.4%

Q: And the “% of binding to wild-type peptide” value (ApoC3 peptide D68F)?
A: 0%

Q: And the “% of binding to wild-type peptide” value (ApoC3 peptide L67W)?
A: 1.45%

Q: What about the “% of binding to wild-type peptide” value (ApoC3 peptide K60V) of the same binder?
A: 101%

Q: What about the “% of binding to wild-type peptide” value (ApoC3 peptide F64V) of the same binder?
A: 117%

Q: And the “% of binding to wild-type peptide” value (ApoC3 peptide F64N)?
A: 234%

Q: And the “% of binding to wild-type peptide” value (ApoC3 peptide K60N)?
A: 153%

Q: What about the “% of binding to wild-type peptide” value (ApoC3 peptide K60A) of the same binder?
A: 143%

Q: What about the “% of binding to wild-type peptide” value (ApoC3 peptide E63F) of the same binder?
A: 57.1%

Q: And the “% of binding to wild-type peptide” value (ApoC3 peptide D66Q)?
A: 0%

Q: What about the “% of binding to wild-type peptide” value (ApoC3 peptide V71W) of the same binder?
A: 68.7%

Q: And the “% of binding to wild-type peptide” value (ApoC3 peptide K60E)?
A: 362%

Q: What about the “% of binding to wild-type peptide” value (ApoC3 peptide D59S) of the same binder?
A: 57.7%

Q: And the “% of binding to wild-type peptide” value (ApoC3 peptide D59Q)?
A: 68.3%

Q: What about the “% of binding to wild-type peptide” value (ApoC3 peptide V71M) of the same binder?
A: 138%

Q: And the “% of binding to wild-type peptide” value (ApoC3 peptide K60M)?
A: 186%
